{
  "source": "paper PMC8751750",
  "about": "“Effect of using different co-ligands during ^99mTc-labeling of J18 peptide on SK-MES-1 cell binding and tumor targeting” (Iranian Journal of Basic Medical Sciences, 2021)",
  "key": {"A-549 cells": {"test_system": "A-549 cells", "conditions": "previously reported, listed as 99mTc-HYNIC-(Ser)3-J18 (tricine/EDDA); cited from earlier work", "source_text": "Table 1 Overview of affinity binding ^99mTc-HYNIC-(Ser)3-J18 on SK-MES-1 vs A-549 cell line | column: A-549 / Tricine; A-549 / tricine/EDDA"}, "SK-MES-1 cells [1]": {"test_system": "SK-MES-1 cells", "assay": "Saturation binding assay on SK-MES-1 cells", "set-up": "species or system human", "protocol": "The affinities of (^99mTc) Tc-HYNIC-peptides were determined utilizing a saturation binding experiment with cultivated cells in vitro for determination of the dissociation constant as KD and the number of binding sites per cell (Bmax). SK-MES-1 cells were incubated for 2 hr at 37 °C with increasing concentrations of (^99mTc) Tc- HYNIC- peptides (0.1, 0.5, 1, 2.5, 5, 25, and 50 nM). One dish served as a blocking sample, and it was immersed in a blocking solution containing a 500-fold excess of the non-labeled peptide. For each concentration, three dishes were utilized. Following incubation, the media was withdrawn, and the cells were trypsinized and collected for Gamma counter activity measurement. Prism 5 software (Ver. 5.0) was used to examine the particular binding data using nonlinear regression."}, "[2]": {"assay": "Biodistribution in normal mice", "assay_type": "in vivo", "conditions": "normal female NMRI mice, i.v. 1 μg in 100 μl (18.5 MBq), mean±SD, n=4", "protocol": "All animal investigations were approved by Mazandaran University of Medical Sciences Research and Ethical Committee in Sari, Iran. Twelve normal female NMRI mice (20–30 g) were randomly divided into three groups of four. 1 μg of (^99mTc) Tc –HYNIC–J18 peptide in 100 μl of buffer (18.5 MBq) was injected into the tail vein. All animals were sacrificed one, four, and twenty-four hours following radiolabeled peptide injection. Mice were euthanized with an appropriate dose of ketamine/xylazine (Sigma, USA) diluted with sterile water (1:3 v/v). Following deep anesthesia, blood was extracted by heart puncture with a 1-mL syringe washed with diluted heparin. Blood, liver, spleen, salivary gland, stomach, kidney, muscle, and bone samples were dissected and weighed, and radioactivity was measured. Except for the intestines, which were computed as a percentage of the injected dose per gram tissue (percent ID/g), the tissue uptake data was calculated as a percentage of the administered dose per total sample."}, "[3]": {"test_system": "SK-MES-1, A-549, SKOV-3 and MCF-7 cells", "assay": "In vitro receptor binding of radiolabeled peptides on four cell lines", "set-up": "species or system human", "conditions": "40 nM radiolabeled peptide, 2 hr at 37 °C", "protocol": "(§1) The in vitro receptor binding of the^ 99mTc-labeled peptide was evaluated using SK-MES-1 a human lung squamous cell carcinoma, SKOV-3 human ovarian carcinoma, and A-549 human lung adenocarcinoma epithelial and MCF-7 human breast cancer cell lines. All cell lines were kept at 37 °C in a 5% CO2 incubator and were maintained in Dulbecco’s DMEM-high glucose supplemented with 10% FBS. Cells were plated in 24-well plates at a density of 4×10^5 cells/well in 1 ml of complete medium and incubated for 24 hr to allow in cells to settle. Following a wash with cold serum-free media or PBS, 40 nM radiolabeled peptides in the full medium were given to the cells, which were then incubated at 37 °C for 2 hr. Finally, cells in culture plates were trypsinized and released, and radioactivity in the cells was measured. To determine specific versus nonspecific binding, SK-MES-1 cells were seeded into 12-well plates at a density of 5×10^5 cells/well and incubated with unlabeled peptides at a concentration 500-fold higher than the labeled peptide for 20 min at 37 °C, followed by the addition of the radiolabeled peptide to the wells. These cells were incubated for 2 hr at 37 °C in a humidified incubator."}, "SK-MES-1 cells [4]": {"test_system": "SK-MES-1 cells", "assay": "Specific binding (blocking with unlabeled peptide) on SK-MES-1 cells", "set-up": "species or system human", "conditions": "listed as 99mTc-peptide 2", "protocol": "as §1"}, "SK-MES-1 tumors": {"test_system": "SK-MES-1 tumors", "assay": "Biodistribution in SK-MES-1 xenografted nude mice", "assay_type": "in vivo, female C57 nu/nu mice", "conditions": "SK-MES-1 xenograft nude mice, mean ± SD, n=4", "protocol": "(§2) The tumor biodistribution and targeting properties of the radiolabeled peptides were carried out in female C57 nu/nu mice bearing SK-MES-1 (Pasture Institute, North Branch and Amol, Iran). The tumor was grafted by subcutaneous injection of SK-MES-1 cells at a concentration of 4×10^6 cells/mouse into the right front flank of the mice and left to grow over a period of 20 days. The mice were ready for biodistribution when tumor size reached 0.7–1 cm^3 in mean diameter, all mice received intravenous co-injections of (^99mTc) Tc-HYNIC-(Ser)3-J18 peptide 1 or (^99mTc )Tc-HYNIC-(Ser)3-J18 peptide 2 (1 μg in 100 μl buffer) after 1, 2, and 4 hr post-injection, respectively (n=4 mice per group). In order to measure the radiopeptides’ nonspecific uptake of the radiopeptides, one group of four animals was injected with 300 μg of non-labeled peptide in a 50 μl buffer. The mice in the blocking group were euthanized 2 hr after the injection. Mice organ and tissue samples were collected, and radioactivity uptake was calculated as a percentage of the administered dose per gram tissue (%ID/g)."}, "[5]": {"assay": "Biodistribution in SK-MES-1 xenografted nude mice", "assay_type": "in vivo, female C57 nu/nu mice", "conditions": "female, C57 nu/nu, mouse, in vivo, iv, total radioactivity, SK-MES-1 xenograft nude mice, n=4", "protocol": "as §2"}},
  "note": "“Also recorded” adds a separate entry of the source. Peptide text beside a SMILES is read from it.",
  "data": [
    {"smiles": "CC(C)C[C@H](NC(=O)[C@H](CO)NC(=O)[C@H](CCCNC(=N)N)NC(=O)[C@H](CO)NC(=O)[C@H](CO)NC(=O)[C@H](CO)NC(=O)c1ccc(NN)nc1)C(=O)N[C@@H](Cc1c[nH]c2ccccc12)C(=O)N[C@@H](CO)C(=O)N[C@@H](CC(=O)O)C(=O)N[C@@H](Cc1ccccc1)C(=O)N[C@@H](Cc1ccc(O)cc1)C(=O)N[C@@H](C)C(=O)N[C@@H](CO)C(=O)N[C@@H](C)C(=O)N[C@@H](CO)C(=O)N[C@@H](CCCNC(=N)N)C(=O)NCC(=O)N1CCC[C@H]1C(=O)O", "note": "[Peptide 2, (^99mTc) Tc-HYNIC-(Ser)3-J18 with tricine/EDDA, metal not drawn] (HELM PEPTIDE1{[NNc1ccc(C(=O)[*:2])cn1].S.S.S.R.S.L.W.S.D.F.Y.A.S.A.S.R.G.P}$$$$V2.0; C-terminus assumed)", "values": [
      {"measurement": "Kd", "setting": "A-549 cells", "result": "4.4 ± 0.8", "unit": "nM"},
      {"measurement": "Bmax", "setting": "SK-MES-1 cells [1]; Figure 4, saturation binding, 2 hr at 37 °C, listed as 99mTc-(EDDA/tricine)-(Ser)3-HYNIC-J18", "result": "(1.9±0.3)·10^4 binding sites/cell"},
      {"measurement": "binding affinity for SK-MES-1, in words", "setting": "SK-MES-1 cells [1]; listed as 99mTc-peptide 2", "result": "high binding affinity; also recorded: good receptor-binding affinity"},
      {"measurement": "Kd", "setting": "SK-MES-1 cells [1]; saturation binding, 0.1-50 nM, 2 hr at 37 °C, blocking with 500-fold excess non-labeled peptide, three dishes per concentration, Prism 5 nonlinear regression, listed as 99mTc-HYNIC-(Ser)3-J18 (tricine/EDDA)", "result": "3.64 ± 0.8", "unit": "nM"},
      {"measurement": "Intestine uptake (with contents)", "setting": "[2]; 4 hr", "result": "3.63±1.80 percentage of injected dose per whole sample"},
      {"measurement": "Intestine uptake (with contents)", "setting": "[2]; 24 hr", "result": "0.59±0.29 percentage of injected dose per whole sample"},
      {"measurement": "cellular affinity, in words", "setting": "[3]", "result": "strongest cellular affinity for the SK-MES-1 cell line"},
      {"measurement": "reduction of binding by pre-saturation with unlabeled J18 peptide", "setting": "SK-MES-1 cells [4]; 500-fold unlabeled peptide 20 min at 37 °C, then radiolabeled peptide 2 hr at 37 °C", "result": 7.5, "unit": "fold"},
      {"measurement": "specific binding to SK-MES-1, in words", "setting": "SK-MES-1 cells [4]", "result": "high specificity"},
      {"measurement": "Intestine uptake (with contents)", "setting": "SK-MES-1 tumors; 1 hr, i.v. 1 μg in 100 μl", "result": "0.78±0.01 percentage of injected dose per whole sample"},
      {"measurement": "Intestine uptake (with contents)", "setting": "SK-MES-1 tumors; 2h-blocked (300 μg non-labeled peptide 0.5 hr before), i.v. 1 μg", "result": "0.23±0.09 percentage of injected dose per whole sample"},
      {"measurement": "Intestine uptake (with contents)", "setting": "SK-MES-1 tumors; 2 hr, i.v. 1 μg in 100 μl", "result": "0.53±0.11 percentage of injected dose per whole sample"},
      {"measurement": "Intestine uptake (with contents)", "setting": "SK-MES-1 tumors; 4 hr, i.v. 1 μg in 100 μl", "result": "0.03±0.01 percentage of injected dose per whole sample"},
      {"measurement": "tissue to tissue ratio at 2 h", "setting": "[5]; 1 ug, 2 hr, read-out: Tumor/blood ratio", "result": 2.96},
      {"measurement": "tissue uptake at 2 h", "setting": "[5]; 2h-blocked (300 μg non-labeled peptide 0.5 hr before), i.v. 1 μg, mean ± SD, read-out: Tumor uptake", "result": "0.43 ± 0.05", "unit": "%ID/g"}
    ]}
  ]
}
